From paper PMC8142254, “The mycobacterial proteasomal ATPase Mpa forms a gapped ring to engage the 20S proteasome” (The Journal of Biological Chemistry, 2021)

Legend:
[1] = biological target: Mycobacterium tuberculosis open-gate 20S proteasome core particle (20SOG CP) (Mycobacterium tuberculosis) (UniProt P9WHU1); assay: negative-stain EM; 2 M equivalents of Mpa hexamer, 3 M equivalents of Pup and 1 M equivalent of 20SOG CP with 3 mM ADP on ice for 40 min; 2D class averages of side views, capped versus uncapped CPs counted
Sequence of Mycobacterium tuberculosis open-gate 20S proteasome core particle (20SOG CP) (Mycobacterium tuberculosis) (P9WHU1 whole entry, chain 1 of 2): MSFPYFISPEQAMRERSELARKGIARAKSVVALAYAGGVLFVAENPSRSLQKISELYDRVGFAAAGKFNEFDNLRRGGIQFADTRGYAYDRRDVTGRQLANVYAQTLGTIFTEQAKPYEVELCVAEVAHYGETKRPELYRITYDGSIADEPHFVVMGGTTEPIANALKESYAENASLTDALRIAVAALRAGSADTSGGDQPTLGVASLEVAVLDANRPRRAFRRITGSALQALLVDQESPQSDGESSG
Sequence of Mycobacterium tuberculosis open-gate 20S proteasome core particle (20SOG CP) (Mycobacterium tuberculosis) (P9WHT9 58-291, chain 2 of 2, further chain): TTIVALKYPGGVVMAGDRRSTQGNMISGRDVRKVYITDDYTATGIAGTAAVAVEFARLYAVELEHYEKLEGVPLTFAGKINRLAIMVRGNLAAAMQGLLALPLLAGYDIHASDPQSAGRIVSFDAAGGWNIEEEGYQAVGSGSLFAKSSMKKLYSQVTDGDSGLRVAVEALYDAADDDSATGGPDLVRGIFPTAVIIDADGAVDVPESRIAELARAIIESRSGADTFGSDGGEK

[2] = biological target: Mycobacterium tuberculosis open-gate 20S proteasome core particle (20SOG CP) (Mycobacterium tuberculosis) (UniProt P9WHU1); assay: negative-stain EM; 2 M equivalents of Mpa hexamer, 3 M equivalents of Pup and 1 M equivalent of 20SOG CP with 3 mM ATP on ice for 40 min; 2D class averages of side views, capped versus uncapped CPs counted

B1: Mycobacterium tuberculosis proteasomal ATPase Mpa, full-length (1–609) (enzyme)
chain: MGESERSEAFGIPRDSPLSSGDAAELEQLRREAAVLREQLENAVGSHAPTRSARDIHQLEARIDSLAARNSKLMETLKEARQQLLALREEVDRLGQPPSGYGVLLATHDDDTVDVFTSGRKMRLTCSPNIDAASLKKGQTVRLNEALTVVEAGTFEAVGEISTLREILADGHRALVVGHADEERVVWLADPLIAEDLPDGLPEALNDDTRPRKLRPGDSLLVDTKAGYAFERIPKAEVEDLVLEEVPDVSYADIGGLSRQIEQIRDAVELPFLHKELYREYSLRPPKGVLLYGPPGCGKTLIAKAVANSLAKKMAEVRGDDAHEAKSYFLNIKGPELLNKFVGETERHIRLIFQRAREKASEGTPVIVFFDEMDSIFRTRGTGVSSDVETTVVPQLLSEIDGVEGLENVIVIGASNREDMIDPAILRPGRLDVKIKIERPDAEAAQDIYSKYLTEFLPVHADDLAEFDGDRSACIKAMIEKVVDRMYAEIDDNRFLEVTYANGDKEVMYFKDFNSGAMIQNVVDRAKKNAIKSVLETGQPGLRIQHLLDSIVDEFAENEDLPNTTNPDDWARISGKKGERIVYIRTLVTGKSSSASRAIDTESNLGQYL
notes: Mpa (mycobacterial proteasome ATPase), Mycobacterium tuberculosis, full-length, residues 1-609; Homohexamer; In the cryo-EM model the coiled-coil domains and two of the six AAA domains are not resolved; also called mycobacterial proteasome ATPase; WT Mpa
- percent of 20SOG CPs bound to Mpa hexamer [1]: 8%
- percent of 20SOG CPs bound to Mpa hexamer [2]: 37%
